# Measurements published in article PMC4045321 (2014).
# B1: eIF2Bα (protein)
# chain: MDDKELIEYFKSQMKEDPDMASAVAAIRTLLEFLKRDKGETIQGLRANLTSAIETLCGVDSSVAVSSGGELFLRFISLASLEYSDYSKCKKIMIERGELFLRRISLSRNKIADLCHTFIKDGATILTHAYSRVVLRVLEAAVAAKKRFSVYVTESQPDLSGKKMAKALCHLNVPVTVVLDAAVGYIMEKADLVIVGAEGVVENGGIINKIGTNQMAVCAKAQNKPFYVVAESFKFVRLFPLNQQDVPDKFKYKADTLKVAQTGQDLKEEHPWVDYTAPSLITLLFTDLGVLTPSAVSDELIKLYL
# Target: the molecule itself
# Test: size exclusion chromatography
protein,measurement,value
B1,Kd,< 1 nM
